Measured values from paper PMC5912448.
pKd: −log10 of the molar value.

Target: human β-Klotho extracellular domain (aa 1–992) His6 (human) (UniProt Q86Z14)
Assay: BLI; Octet RED; biotinylated β-Klotho ECD His6 (10 μg/ml) loaded onto streptavidin biosensors; analyte at various concentrations in kinetics buffer, 5 min association, 10 min dissociation; globally fitted 1:1 binding model

Chain of UniProt Q86Z14 (Q86Z14 1-992): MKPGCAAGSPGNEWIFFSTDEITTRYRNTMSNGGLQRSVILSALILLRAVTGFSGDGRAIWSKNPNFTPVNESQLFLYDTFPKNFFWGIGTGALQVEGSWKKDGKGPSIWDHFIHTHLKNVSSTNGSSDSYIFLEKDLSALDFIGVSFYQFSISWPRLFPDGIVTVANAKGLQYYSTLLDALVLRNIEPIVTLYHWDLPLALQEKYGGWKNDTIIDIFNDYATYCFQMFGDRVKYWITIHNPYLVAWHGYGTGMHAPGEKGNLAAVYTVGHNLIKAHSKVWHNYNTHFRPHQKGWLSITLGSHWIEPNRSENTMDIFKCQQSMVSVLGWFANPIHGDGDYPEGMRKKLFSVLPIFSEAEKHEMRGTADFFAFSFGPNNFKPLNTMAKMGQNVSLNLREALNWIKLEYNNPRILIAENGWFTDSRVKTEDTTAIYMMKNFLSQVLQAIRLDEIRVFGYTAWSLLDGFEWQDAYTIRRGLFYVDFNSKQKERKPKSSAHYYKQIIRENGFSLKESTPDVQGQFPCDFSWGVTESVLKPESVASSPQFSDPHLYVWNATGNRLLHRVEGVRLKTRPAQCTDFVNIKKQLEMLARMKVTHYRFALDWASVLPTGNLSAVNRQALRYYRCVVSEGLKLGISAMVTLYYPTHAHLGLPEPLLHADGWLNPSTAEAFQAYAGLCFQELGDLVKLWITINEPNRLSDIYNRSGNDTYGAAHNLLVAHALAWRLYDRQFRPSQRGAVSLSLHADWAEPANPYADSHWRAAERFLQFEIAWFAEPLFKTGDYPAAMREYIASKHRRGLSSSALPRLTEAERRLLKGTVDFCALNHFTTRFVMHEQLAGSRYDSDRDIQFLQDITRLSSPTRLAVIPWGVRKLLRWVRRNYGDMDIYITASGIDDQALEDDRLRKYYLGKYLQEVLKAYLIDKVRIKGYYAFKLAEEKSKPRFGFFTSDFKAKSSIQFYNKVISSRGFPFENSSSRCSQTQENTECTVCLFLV

pKd: 8.45
Substance: fibroblast growth factor 21 (ligand)
